Molecular target: recombinant full-length USP7 (UniProt Q93009 1-1102)
Assay: co-IP

recombinant full-length USP7, sequence (Q93009 whole entry): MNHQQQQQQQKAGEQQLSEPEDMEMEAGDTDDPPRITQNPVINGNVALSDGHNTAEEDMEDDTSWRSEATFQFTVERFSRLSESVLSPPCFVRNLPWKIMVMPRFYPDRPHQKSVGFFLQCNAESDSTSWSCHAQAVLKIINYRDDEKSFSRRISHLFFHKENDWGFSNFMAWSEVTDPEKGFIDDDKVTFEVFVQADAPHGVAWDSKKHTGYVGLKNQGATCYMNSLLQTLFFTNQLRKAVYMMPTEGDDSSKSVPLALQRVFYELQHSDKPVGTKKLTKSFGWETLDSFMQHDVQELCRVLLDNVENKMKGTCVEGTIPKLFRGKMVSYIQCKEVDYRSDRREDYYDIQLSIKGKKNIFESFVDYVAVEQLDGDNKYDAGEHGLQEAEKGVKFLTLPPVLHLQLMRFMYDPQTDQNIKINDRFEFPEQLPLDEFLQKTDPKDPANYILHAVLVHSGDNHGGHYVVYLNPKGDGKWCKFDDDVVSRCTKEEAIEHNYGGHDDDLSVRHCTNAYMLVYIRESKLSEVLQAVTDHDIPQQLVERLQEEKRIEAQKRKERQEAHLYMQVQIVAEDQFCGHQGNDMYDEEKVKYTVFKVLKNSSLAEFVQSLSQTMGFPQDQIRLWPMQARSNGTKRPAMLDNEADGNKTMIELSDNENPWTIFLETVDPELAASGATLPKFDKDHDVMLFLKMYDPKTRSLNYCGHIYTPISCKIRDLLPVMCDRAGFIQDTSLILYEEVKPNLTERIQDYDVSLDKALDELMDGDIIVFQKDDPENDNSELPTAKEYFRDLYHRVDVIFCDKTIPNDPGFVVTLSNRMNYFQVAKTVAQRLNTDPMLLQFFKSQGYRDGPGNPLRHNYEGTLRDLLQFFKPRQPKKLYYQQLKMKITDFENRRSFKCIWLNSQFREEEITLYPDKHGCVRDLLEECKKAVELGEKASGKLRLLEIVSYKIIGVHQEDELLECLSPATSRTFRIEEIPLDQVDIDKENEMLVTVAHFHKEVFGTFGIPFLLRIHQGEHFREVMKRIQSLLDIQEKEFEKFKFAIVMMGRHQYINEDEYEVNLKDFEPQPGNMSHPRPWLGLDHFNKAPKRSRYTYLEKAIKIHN

B1: recombinant full-length UHRF1 (natural protein)
chain: MWIQVRTMDGRQTHTVDSLSRLTKVEELRRKIQELFHVEPGLQRLFYRGKQMEDGHTLFDYEVRLNDTIQLLVRQSLVLPHSTKERDSELSDTDSGCCLGQSESDKSSTHGEAAAETDSRPADEDMWDETELGLYKVNEYVDARDTNMGAWFEAQVVRVTRKAPSRDEPCSSTSRPALEEDVIYHVKYDDYPENGVVQMNSRDVRARARTIIKWQDLEVGQVVMLNYNPDNPKERGFWYDAEISRKRETRTARELYANVVLGDDSLNDCRIIFVDEVFKIERPGEGSPMVDNPMRRKSGPSCKHCKDDVNRLCRVCACHLCGGRQDPDKQLMCDECDMAFHIYCLDPPLSSVPSEDEWYCPECRNDASEVVLAGERLRESKKKAKMASATSSSQRDWGKGMACVGRTKECTIVPSNHYGPIPGIPVGTMWRFRVQVSESGVHRPHVAGIHGRSNDGAYSLVLAGGYEDDVDHGNFFTYTGSGGRDLSGNKRTAEQSCDQKLTNTNRALALNCFAPINDQEGAEAKDWRSGKPVRVVRNVKGGKNSKYAPAEGNRYDGIYKVVKYWPEKGKSGFLVWRYLLRRDDDEPGPWTKEGKDRIKKLGLTMQYPEGYLEALANREREKENSKREEEEQQEGGFASPRTGKGKWKRKSAGGGPSRAGSPRRTSKKTKVEPYSLTAQQSSLIREDKSNAKLWNEVLASLKDRPASGSPFQLFLSKVEETFQCICCQELVFRPITTVCQHNVCKDCLDRSFRAQVFSCPACRYDLGRSYAMQVNQPLQTVLNQLFPGYGNGR
B1: binds.

Source: PMC3201865 (Nucleic Acids Research, 2011)
